These results are taken from patent US20160200791A1 (Novo Nordisk, published 2016).

The target of experiment [1] is T1, human GLP-1 receptor (human, UniProt P43220 24-463). Briefly: cell-based or functional assay.
Experiment [2] addresses T1, human GLP-1 receptor. Briefly: competitive SPA binding, displacement of 125I-GLP-1(7-36)NH2 from BHK membranes with human GLP-1R, high HSA (2.0%).
Method: (§1) For the receptor binding assay in the presence of low HSA (0.005%) 50 μl of the assay buffer was added to each well of an assay plate. Assay continued with step 3. […] For the receptor binding assay in the presence of high HSA (2%) 50 μl of the 8% albumin stock was added to each well of an assay plate. Assay continued with step 3. […] Cell membrane aliquots were thawed and diluted to their working concentration. Fifty μl were added to each well in the assay plate. […] WGA SPA beads were suspended in assay buffer at 20 mg/ml. The suspension was diluted to 10 mg/ml in assay buffer just prior to addition to the assay plate. Fifty μl were added to each well in the assay plate. […] A 25 μl aliquot was reserved for measuring total counts/well. […] The assay plate was incubated for 2 h at 30° C. […] The assay plate was centrifuged for 10 min. […] The assay plate was read in a Packard TopCount NXT instrument.
Experiment [3] deals with T1, human GLP-1 receptor. Briefly: competitive SPA binding, displacement of 125I-GLP-1(7-36)NH2 from BHK membranes with human GLP-1R, low HSA (max. 0.001%).
Method: as §1

Numbered stars: 1 amine (or outer) side, 2 acyl side, 3 side chain; on linkers, the order of the positions; unused ones are H or OH. Square brackets hold non-standard residues; d marks the D form. Side chains are listed from the residue outwards. Ends that are not written are not given here. * marks the point of attachment. Hexadecanoyl(16-SO3H) = O=C(CCCCCCCCCCCCCCCS(=O)(=O)O)*; C20 diacid = O=C(O)CCCCCCCCCCCCCCCCCCC(=O)*; C18 diacid = O=C(O)CCCCCCCCCCCCCCCCC(=O)*; γGlu = O=C(O)[C@H](CCC(=O)[*:2])N[*:1]; εLys = N[C@@H](CCCCN[*:1])C(=O)[*:2]; Cya = N[C@@H](CS(=O)(=O)O)C(=O)O; Trx = NC[C@H]1CC[C@H](C(=O)O)CC1; AEEA = NCCOCCOCC(=O)O; Aib = CC(C)(N)C(=O)O; Ahx = NCCCCCC(=O)O; GABA = NCCCC(=O)O Where only a bound is given, the exact number is not on record here.

Take H[Aib]EGTFTSDVSK([AEEA-AEEA-AEEA-AEEA-AEEA-εLys-εLys-C20 diacid])YLEK([AEEA-AEEA-AEEA-AEEA-AEEA-εLys-εLys-C20 diacid])QAAREFIK([AEEA-AEEA-AEEA-AEEA-AEEA-εLys-εLys-C20 diacid])WLVRGRG (Full chemical name printed at h-0080): the “In vitro potency EC50 (CRE luciferase reporter gene assay, BHK cells)” value (from here on “In vitro potency EC50”) with human GLP-1 receptor [1] was 0.082 nM. Moreover, the half-inhibitory concentration (IC50) came out at 426 nM with human GLP-1 receptor [2] and 11 nM with human GLP-1 receptor [3].
For the molecule H[Aib]EGTFTSDVSK([AEEA-γGlu-AEEA-C18 diacid])YLEEQAARK([AEEA-γGlu-AEEA-C18 diacid])FIAWLVRGRK([AEEA-γGlu-AEEA-C18 diacid]) (Full chemical name printed at h-0064), the “In vitro potency EC50” value in the experiment with human GLP-1 receptor [1] came out at 0.076 nM. Further, the IC50 with human GLP-1 receptor [2] is > 1000 nM; in the experiment with human GLP-1 receptor [3], 0.7 nM.
The corresponding values for H[Aib]EGTFTSDVSK([AEEA-AEEA-AEEA-AEEA-AEEA-εLys-εLys-Ahx-Hexadecanoyl(16-SO3H)])YLEK([AEEA-AEEA-AEEA-AEEA-AEEA-εLys-εLys-Ahx-Hexadecanoyl(16-SO3H)])QAAREFIK([AEEA-AEEA-AEEA-AEEA-AEEA-εLys-εLys-Ahx-Hexadecanoyl(16-SO3H)])WLVRGRG (Full chemical name printed at h-0090) are 0.027 nM, 100 nM and 0.36 nM.

B1: GLP-1 derivative of Example 19: N{Epsilon-18}, N{Epsilon-22}, N{Epsilon-30}-triacylated [Aib8,Lys18,Lys22,Arg26,Lys30,Arg34]-GLP-1-(7-37)-peptide (peptide)
peptide: H[Aib]EGTFTSDVSK([AEEA-AEEA-AEEA-AEEA-εLys-εLys-Ahx-Hexadecanoyl(16-SO3H)])YLEK([AEEA-AEEA-AEEA-AEEA-εLys-εLys-Ahx-Hexadecanoyl(16-SO3H)])QAAREFIK([AEEA-AEEA-AEEA-AEEA-εLys-εLys-Ahx-Hexadecanoyl(16-SO3H)])WLVRGRG
notes: Full chemical name printed at h-0088; the printed name is uneven in the number of OEG units for the side chains at 18 and 22 (four opened, three closed)
Consider B1, for which the “In vitro potency EC50” value with human GLP-1 receptor [1] stood at 0.019 nM. The IC50 with human GLP-1 receptor [2] is 49 nM; in the experiment with human GLP-1 receptor [3], 0.15 nM.

B2: GLP-1 derivative of Example 4: N{Epsilon-18}, N{Epsilon-22}, N{Epsilon-30}-triacylated [Aib8,Lys18,Lys22,Arg26,Lys30,Arg34]-GLP-1-(7-37)-peptide (peptide)
peptide: H[Aib]EGTFTSDVSK([AEEA-AEEA-Cya-Trx-Hexadecanoyl(16-SO3H)])YLEK([AEEA-AEEA-Cya-Trx-Hexadecanoyl(16-SO3H)])QAAREFIK([AEEA-AEEA-Cya-Trx-Hexadecanoyl(16-SO3H)])WLVRGRG
notes: Full chemical name printed at h-0058 (it prints 'Lys8' where Lys18 is meant)
Turning to B2, the “In vitro potency EC50” value with human GLP-1 receptor [1] came to 0.014 nM. The figures for the IC50 in the experiment with human GLP-1 receptor [2] and in the experiment with human GLP-1 receptor [3] were 351 nM and 1.6 nM, respectively.
The corresponding values for H[Aib]EGTFTSDVSK([AEEA-AEEA-Cya-Hexadecanoyl(16-SO3H)])YLEK([AEEA-AEEA-Cya-Hexadecanoyl(16-SO3H)])QAAREFIK([AEEA-AEEA-Cya-Hexadecanoyl(16-SO3H)])WLVRGRG (Full chemical name printed at h-0054) are 0.02 nM, 290 nM and 1.4 nM.
The corresponding values for H[Aib]EGTFTSDVSK([AEEA-AEEA-εLys-εLys-Hexadecanoyl(16-SO3H)])YLEK([AEEA-AEEA-εLys-εLys-Hexadecanoyl(16-SO3H)])QAAREFIK([AEEA-AEEA-εLys-εLys-Hexadecanoyl(16-SO3H)])WLVRGRG (Full chemical name printed at h-0078) are 0.018 nM, 100 nM and 0.19 nM.

B3: GLP-1 derivative of Example 6: N{Epsilon-18}, N{Epsilon-27}, N{Epsilon-37}-triacylated [Aib8,Lys18,Glu22,Arg26,Lys27,Arg34,Lys37]-GLP-1-(7-37)-peptide (peptide)
peptide: H[Aib]EGTFTSDVSK([εLys-AEEA-AEEA-γGlu-C18 diacid])YLEEQAARK([εLys-AEEA-AEEA-γGlu-C18 diacid])FIAWLVRGRK([εLys-AEEA-AEEA-γGlu-C18 diacid])
notes: Full chemical name printed at h-0062 (it prints 'Lys8' where Lys18 is meant)
In the case of B3, the “In vitro potency EC50” value in the experiment with human GLP-1 receptor [1] was found to be 0.012 nM. In addition, the concentration for half-maximal inhibition (IC50) in the experiment with human GLP-1 receptor [2] is > 1000 nM; in the experiment with human GLP-1 receptor [3] it was 0.4 nM.
The corresponding values for H[Aib]EGTFTSDVSK([AEEA-AEEA-AEEA-AEEA-AEEA-εLys-εLys-GABA-Hexadecanoyl(16-SO3H)])YLEK([AEEA-AEEA-AEEA-AEEA-AEEA-εLys-εLys-GABA-Hexadecanoyl(16-SO3H)])QAAREFIK([AEEA-AEEA-AEEA-AEEA-AEEA-εLys-εLys-GABA-Hexadecanoyl(16-SO3H)])WLVRGRG (Full chemical name printed at h-0092) are 0.015 nM, 96 nM and 0.24 nM.
The corresponding values for H[Aib]EGTFTSDVSK([AEEA-AEEA-AEEA-AEEA-εLys-εLys-GABA-Hexadecanoyl(16-SO3H)])YLEK([AEEA-AEEA-AEEA-AEEA-εLys-εLys-GABA-Hexadecanoyl(16-SO3H)])QAAREFIK([AEEA-AEEA-AEEA-AEEA-εLys-εLys-GABA-Hexadecanoyl(16-SO3H)])WLVRGRG (Full chemical name printed at h-0086) are 0.116 nM, 19 nM and 0.1 nM.
The corresponding values for H[Aib]EGTFTSDVSK([AEEA-AEEA-γGlu-C18 diacid])YLEEQAARK([AEEA-AEEA-γGlu-C18 diacid])FIAWLVRGRK([AEEA-AEEA-γGlu-C18 diacid]) (Full chemical name printed at h-0060) are 0.04 nM, > 1000 nM and 0.6 nM.
As for H[Aib]EGTFTSDVSSYLEEQAAK([εLys-AEEA-AEEA-γGlu-C18 diacid])EFIK([εLys-AEEA-AEEA-γGlu-C18 diacid])WLVRGRK([εLys-AEEA-AEEA-γGlu-C18 diacid]) (Full chemical name printed at h-0072), in the experiment with human GLP-1 receptor [1], the “In vitro potency EC50” value was found to be 0.085 nM. Moreover, the results for the IC50 with human GLP-1 receptor [2] and in the experiment with human GLP-1 receptor [3] were > 1000 nM and 8.7 nM, respectively.
The corresponding values for H[Aib]EGTFTSDVSSYLEEQAAK([εLys-AEEA-AEEA-Cya-Hexadecanoyl(16-SO3H)])EFIK([εLys-AEEA-AEEA-Cya-Hexadecanoyl(16-SO3H)])WLVRGRK([εLys-AEEA-AEEA-Cya-Hexadecanoyl(16-SO3H)]) (Full chemical name printed at h-0074) are 0.099 nM, 214 nM and 5 nM.
On to H[Aib]EGTFTSDVSK([Ser-Ser-Ser-Ser-Ser-Ser-γGlu-C18 diacid])YLEGQAARK([Ser-Ser-Ser-Ser-Ser-Ser-γGlu-C18 diacid])FIAWLVRGRK([Ser-Ser-Ser-Ser-Ser-Ser-γGlu-C18 diacid]) (Full chemical name printed at h-0068), for which the “In vitro potency EC50” value with human GLP-1 receptor [1] turned out to be 0.067 nM. For the same molecule, the 50% inhibitory concentration (IC50) with human GLP-1 receptor [2] was > 1000 nM.
With H[Aib]EGTFTSDVSSYLEEQAARK([AEEA-AEEA-γGlu-C18 diacid])FIK([AEEA-AEEA-γGlu-C18 diacid])WLVRGRK([AEEA-AEEA-γGlu-C18 diacid]) (Full chemical name printed at h-0070), in the experiment with human GLP-1 receptor [1], the “In vitro potency EC50” value amounted to 0.026 nM. Besides, the figures for the IC50 with human GLP-1 receptor [2] and with human GLP-1 receptor [3] were 188 nM and 0.82 nM, respectively.
The corresponding values for H[Aib]EGTFTSDVSK([AEEA-AEEA-AEEA-AEEA-AEEA-εLys-εLys-εLys-C18 diacid])YLEK([AEEA-AEEA-AEEA-AEEA-AEEA-εLys-εLys-εLys-C18 diacid])QAAREFIK([AEEA-AEEA-AEEA-AEEA-AEEA-εLys-εLys-εLys-C18 diacid])WLVRGRG (Full chemical name printed at h-0084) are 0.018 nM, 143 nM and 0.08 nM.
The corresponding values for H[Aib]EGTFTSDVSK([AEEA-AEEA-εLys-Hexadecanoyl(16-SO3H)])YLEK([AEEA-AEEA-εLys-Hexadecanoyl(16-SO3H)])QAAREFIK([AEEA-AEEA-εLys-Hexadecanoyl(16-SO3H)])WLVRGRG (Full chemical name printed at h-0076) are 0.026 nM, 84 nM and 0.23 nM.
The corresponding values for H[Aib]EGTFTSDVSK([AEEA-AEEA-γGlu-Trx-Hexadecanoyl(16-SO3H)])YLEK([AEEA-AEEA-γGlu-Trx-Hexadecanoyl(16-SO3H)])QAAREFIK([AEEA-AEEA-γGlu-Trx-Hexadecanoyl(16-SO3H)])WLVRGRG (Full chemical name printed at h-0052) are 0.067 nM, 289 nM and 2.3 nM.
For the molecule H[Aib]EGTFTSDVSK([AEEA-AEEA-AEEA-AEEA-AEEA-εLys-εLys-C18 diacid])YLEK([AEEA-AEEA-AEEA-AEEA-AEEA-εLys-εLys-C18 diacid])QAAREFIK([AEEA-AEEA-AEEA-AEEA-AEEA-εLys-εLys-C18 diacid])WLVRGRG (Full chemical name printed at h-0082), the “In vitro potency EC50” value in the experiment with human GLP-1 receptor [1] is 0.014 nM. The concentration for half-maximal inhibition (IC50) is 381 nM in the experiment with human GLP-1 receptor [2] and 0.4 nM with human GLP-1 receptor [3].
